Measurements as given in patent publication US20240317871A1 (IMMUNOMIC THERAPEUTICS, published 2024).

Tests used:
murine HVEM = target: T1, murine HVEM (murine, UniProt Q80WM9 39-206, limits assumed); test: ELISA
T1 construct: also called Mouse
T1 sequence (looked up): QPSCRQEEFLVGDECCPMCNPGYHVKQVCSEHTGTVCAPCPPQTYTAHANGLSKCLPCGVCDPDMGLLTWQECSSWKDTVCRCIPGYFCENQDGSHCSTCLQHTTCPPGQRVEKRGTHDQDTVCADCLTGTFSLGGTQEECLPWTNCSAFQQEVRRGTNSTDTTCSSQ

human HVEM = target: T2, human HVEM (human, UniProt Q92956 39-202, limits assumed); test: ELISA
T2 sequence (looked up): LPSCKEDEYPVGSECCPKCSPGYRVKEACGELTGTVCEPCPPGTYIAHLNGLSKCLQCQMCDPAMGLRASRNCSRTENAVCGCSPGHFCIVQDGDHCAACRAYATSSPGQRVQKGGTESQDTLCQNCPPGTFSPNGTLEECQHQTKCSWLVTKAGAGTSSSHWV

cynomolgus monkey HVEM = target: T3, cynomolgus monkey HVEM (cynomolgus monkey, UniProt A0A2K5W0R1 39-203); test: ELISA
T3 sequence: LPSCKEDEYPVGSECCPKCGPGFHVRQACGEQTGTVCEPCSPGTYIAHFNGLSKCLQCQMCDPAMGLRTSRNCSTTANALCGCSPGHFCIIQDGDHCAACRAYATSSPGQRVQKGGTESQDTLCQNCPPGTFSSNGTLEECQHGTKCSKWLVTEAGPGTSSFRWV

[1] = target: T4, Human HEVM recombinant protein (Sino Biological, 10334-H02H) (human, UniProt Q92956 39-202); test: competition ELISA, competitor BTLA-His
T4 construct: construct known only by catalogue number; also called HVEM; human HVEM
T4 sequence (looked up): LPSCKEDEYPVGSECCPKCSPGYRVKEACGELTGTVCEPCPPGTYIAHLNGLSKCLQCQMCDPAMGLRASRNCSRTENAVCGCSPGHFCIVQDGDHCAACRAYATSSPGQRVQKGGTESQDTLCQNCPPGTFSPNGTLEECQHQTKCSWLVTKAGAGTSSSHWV
Procedure: The competitive activity of HVEM antibody to BTLA or LIGHT was evaluated with ELISA-based competitive assay. Briefly Human HEVM recombinant protein (Sino Biological, 10334-H02H, 4 ug/ml, 100 ul/well) was coated to ELISA plate (Thermo Scientific, 469949, 4C overnight). A pre-mixture of HVEM antibody clone with seral dilution and 400 nM BTLA-His (R&D systems, 9235-BT-050) or LIGHT-His (SinoBiological, 10386-H07H) recombinant protein was made and added to the ELISA plate after blocking with 3% BSA (200 ul/well, RT 2 Hr) for 1 Hr at RT. The serial dilutions of HVEM antibody clone involve 7 different concentrations, with a 3-fold dilution performed start from 100 nM for BTLA or 325 nM for LIGHT competitive assay. The concentration was the final concentration. Plate was washed with PBST; diluted HRP-anti-His (Biolegend, 652504, 1:1000) with PBS containing 5% FBS was added 100 ul per well for 1 Hr at RT. TMB substrate (KPL, 52-00-00) 100 ul per well after washing and incubate at room temperature for 15 minutes; then stop the development by adding 100 ul stop solution (KPL, 50-85-06). Plate was read at 450 nm. The IC50 was calculated using GraphPad Prism software (GraphPad Software, Inc. San Diego, CA, USA).

His-tagged human HVEM = target: T5, His-tagged human HVEM (human, UniProt Q92956 39-202, limits assumed); test: BLI OctetRed96, mAb captured, 200 nM His-HVEM
T5 construct: Analyte of the BLI assay, 200 nM in PBS; not shown: His tag
T5 sequence (looked up): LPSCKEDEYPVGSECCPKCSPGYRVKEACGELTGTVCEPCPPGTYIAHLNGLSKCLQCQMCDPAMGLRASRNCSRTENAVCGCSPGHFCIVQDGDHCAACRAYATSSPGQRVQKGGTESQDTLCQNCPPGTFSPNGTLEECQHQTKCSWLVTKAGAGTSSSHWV
Procedure: Binding of antibodies to HVEM may also be determined by bio-layer interferometry (BLI) on an OctetRed96@ system (Sartorius). (See http://www.fortebio.com/bli_technology.html for general description of a BLI assay.) For this experiment, murine anti-human HVEM antibodies were captured from culture supernatant using anti-mouse IgG Fc capture and immobilized to dip and read biosensors. Sensors were then dipped into a solution of 200 nM His-tagged human HVEM in phosphate-buffered saline (PBS). Probes were dipped into PBS assay buffer and the dissociation rate (koff) was measured. The association rate (kₒₙ) and affinity (KD) were determined by curve fitting analysis.

Row | ELISA signal (murine HVEM) | ELISA signal (human HVEM) | ELISA signal (cynomolgus monkey HVEM) | IC50 [1] | Kd (His-tagged human HVEM) | koff (His-tagged human HVEM) | kon (His-tagged human HVEM) | Binder
1 | 0.043 | 3.16 | 0.064 | 1.3 nM | 2.67 nM | 0.00125 s⁻¹ | 469000 M⁻¹ s⁻¹ | Ab_058 (H5S19-6A8A) (antibody, V domains shown, also called Ab_58) VH: EVQLVESGGGLVKPGGSLKLSCAASGFTFNIYTMSWVRQSPEMRLEWVAEISSGGSHTYYPDTVTGRFTISRDNAKNTLYLEMSSLRSEDTAIYYCARGGSLFDYWGQGTTLTVSS VL: DVQITQSPSYLAASPGETITINCRTSKNISKYLAWYQEKPGKTNKLLIYSGSTLQSGIPSRFSGSGSGTDFTLTISSLEPEDFVMYHCQQHNEYPWTFGGGTKLEIK
2 | 0.043 | 3.19 | 0.06 | 1.9 nM | 65.8 nM | 0.0167 s⁻¹ | 254000 M⁻¹ s⁻¹ | Ab_083 (H5S20-49A39A) (antibody, V domains shown, also called Ab_153; Ab_83) VH: EVQLQQSGAELVKPGASVKLSCTASGFNIKDTYVHWVKERPEQGLEWIGRIDPANDNTKYAPKFQVKATITADTSSNTAYLQLSSLTSEDNAVYYCAPYGNYPAWFAYWGQGTLVTVSA VL: DVLMTQTPLSLPVSLGDQVSISCRSSQNIVHSNGNTYLEWYLQKPGQSPKLLIYKVSNRFSGVPDRFSGSGSGTDFTLKISRVEAEDLGVYYCFQGSHVPLTFGAGTKLELK
3 | 0.044 | 3.26 | 0.06 | 1.6 nM | 48.2 nM | 0.0272 s⁻¹ | 565000 M⁻¹ s⁻¹ | Ab_074 (H5S20-52A21A) (antibody, V domains shown, also called Ab_74) VH: EVQLQQSGAELVKPGASVKLSCTASGFNIKDTYIHWLNQRPEQGLEWIGRIDPANGKTKFAPKFQDKATITADTSSNTAYLQLSSLTSEDTAVYYCAGYGNSPWFAYWGQGTLVTVSA VL: DVLMTQTPLSLPVSLGDQASISCRSSQSIVHSNGNTYLEWYLQKPGQSPKLLIYKVSNRVSGVPDRFSGSGSGTDFTLKISRVEAEDLGVYYCFQGSHVPLTFGAGTKLELK
4 | 0.077 | 3.4 | 2.94 | 1.9 nM | 4.8 nM | 0.00231 s⁻¹ | 482000 M⁻¹ s⁻¹ | Ab_008 (H5S14-11A10A) (antibody, V domains shown, also called Ab_8) VH: EVKLVESGGGLVKPGGSLRLSCAASGFTFSSFAMSWIRQTPEKGLEWVASITTGGSSYSPDSLKGRFTISRDNVRNIVYLQMSSLRSEDTAMYACARGGGGNYFWFAYWGQGTLVTVSA VL: DVVMTQTPLSLPVSLGDQASISCRSSQSLVHSNGNTYLHWYLQKPGQSPKLLIYKVSNRFSGVPDRFSGSGSGTDFTLKISRVEAEDLGVYFCSQSIHVPFTFGSGTKLEIK
5 | 0.047 | 3.11 | 1.88 | 2.1 nM | 35.1 nM | 0.0175 s⁻¹ | 497000 M⁻¹ s⁻¹ | Ab_009 (H5S14-8A7A) (antibody, V domains shown, also called Ab_9) VH: EVKLVESGGDLVKPGGSLKLSCAASGFTFSNYAMSWVRQTPEKRLEWVASISTGGTTSYYSDSVKGRFTISRDNARNILYLQMSSLRSEDTAMYYCARGGGGNYFWFTYWGQGTLVTISA VL: DVVMTQTPLSLPVSLGDQASISCRSSQSLVHSNGNTYLHWYLQKPGQSPKLLIYKVSNRFSGVPDRFSGSGSGTDFTLKISRVEAEDLGVYFCSQSTHVPFTFGSGTKLEIK

The remaining lines, values behind:

Row | Binder | ELISA signal (murine HVEM) | ELISA signal (human HVEM) | ELISA signal (cynomolgus monkey HVEM) | IC50 [1] | Kd (His-tagged human HVEM) | koff (His-tagged human HVEM) | kon (His-tagged human HVEM)
6 | Ab_073 (H5S20-9A9A) (antibody, V domains shown, also called Ab_73) VH: EVQLQQSGADLVKPGASVKLSCTASGFNIRDTYMHWVNQRPEQGLEWIGRIDPANGNTKYAPKFQGRATITADTSSNTAYLHLSSLTSEDTAVYYCAGYGNSPWFAYWGQGTLVTVSA VL: DVLMTQTPLSLPVNLGDQASISCRSSQSIVHSNGNTYLEWYLQKPGQSPKLLIYKVSNRFSGVPDRFSGSGSGTDFTLKISRVEAEDLGVYYCFQGSHVPLTFGAGTKLELK | 0.045 | 3.24 | 0.062 | 3.2 nM | 370 nM | 0.109 s⁻¹ | 294000 M⁻¹ s⁻¹
7 | Ab_077 (H5S20-31A16B) (antibody, V domains shown, also called Ab_77) VH: EVQLQQSGAELVRSGASVKLSCTTSGFNIKDYYMHWVKQRPEQGLEWIGWIDPENGDTEYAPKFQGKATMTADTSSNTAYLQLSSLTSEDTAVYYCNSRTLGYWGQGTLVTVSA VL: QIVLTQSPALMSASPGEKVTMTCSASSSVSFIYWYQQKPRSSPKPWIYLTSNLASGVPARFSGSGSGTSYSLTISSMEAEDAATYYCQQWSSNPLTFGAGTKLEL | 0.043 | 0.147 | 0.079 |  | 12400 nM | 1.08 s⁻¹ | 86600 M⁻¹ s⁻¹
8 | Ab_079 (H5S20-22A18A) (antibody, V domains shown, also called Ab_79) VH: EVQLQQSGAELVKPGASVKLSCTASGFNIKDTYMHWVKQRPEQGLEWIGRIDPANGNTKYAPKFQGKATITADTSSNTAYLQLSSLTSEDTAVYYCARSFGNYFDYWGQGTTLTVSS VL: NIVLTQSPASLAVSLGQRATISCRASESVDSYGNSFMHWYQQKPGQPPKLLIYLASNLESGVPARFSGSGSRTDFTLTIDPVEADDAATYYCQQNYADPWTFGGGTKLEIK | 0.054 | 2.97 | 0.062 | 11 nM | 13.9 nM | 0.0216 s⁻¹ | 1.56e+06 M⁻¹ s⁻¹
9 | Ab_034 (H5S15-16A11B) (antibody, V domains shown, also called Ab_34) VH: DVQLVESGGGLVQPGGSRKLSCAASGFTFSSFGMHWVRQAPEKGLEWVAHISSGSSTIYYADTVKGRFTISRDNPKNTLFLQMTSLRSEDTAMYYCARGAYGNFAWFPYWGQGTLVTVSA VL: DVVMTQTPLSLSVSLGDQASISCRSSQSLVHSNGNTYLHWYLQKPGQSPKLLIYKVSNRFSGVPDRFSGSGSGTDFTLKISRVEAEDLGVYFCSQSTHVPTFGSGTKLEIK | 0.045 | 3.19 |  | 1.3 nM | 8.67 nM | 0.00235 s⁻¹ | 270000 M⁻¹ s⁻¹
10 | Ab_035 (H5S15-9A10A) (antibody, V domains shown, also called Ab_35) VH: DVQLVESGGGLVQPGGSRKLSCAASGFTFSDFGMHWVRQAPEKGLEWVAHISSGSSTIYYADTVKGRFTISRDNPKNTLFLQMTSLRSEDTAMYYCARGAYGNFAWFPYWGQGTLVTVSA VL: DVVMTQTPLSLPVSLGDQASISCRSSQSLVHTNGNTYLHWYLQKPGQSPRLLIYKVSNRFSGVPDRFSGGGSGTDFTLKISRVEAEDLGVYFCSQSTHVPTFGSGTKLEIK | 0.045 | 3.2 |  | 1.4 nM | 6.58 nM | 0.00235 s⁻¹ | 357000 M⁻¹ s⁻¹
